This data set can be described thus: label from the status in PepcDB records.
“MSLSGPRVERLEVSAYTVPTDYPESDGTLQWDSTTMILVEAHGGGRKGLGYTYGDVSVGRFVESKLAGVAEGSDALSPPAVWARMQAAIRNAGRPGVGAMAVSAVDIALWDLKARLLGLPLADALPRFHAEVPVYGSGGFTSYPLRRLQEQLGGWAAAGIPRVKMKVGREPEKDPERVRAAREAIGESVELMVDANGAYTRKQALYWAGAFAREAGISYLEEPVSSEDREGLRLLRDRGPGGVAIAAGEYEWTLPQLHDLAGCVDILQADVTRCGGITGLLRVDGICRGHQIPFSAHCAPAVSAHACCAVESLLHLEYFHDHARVERLLFDGTLDPEGGSLRPDPDRPGLGLELKRSEAGKYAAEGHHHHHH”: the protein production entry is given as “not failed”.
With “MSLSGTLIGAAAGGTVGLVASIYRDSKRKIIRDLQKQDIQYVEYGDTRTLIIPTDKYFMFSSPRLNEICYPGLNNVIRLLNFYPQSTIYVAGFTDNVGSRSHKRKLSQAQAETMMTFLWANGIAAKRLKAEGYGDKNAISDNAIIHGSAQNRRIEIQWFTSEGHHHHHH” the entry was “not failed”; with “MSLSGVSHVSLTVRDLDISCRWYTEILDWKELVRGRGDTTSFAHGVLPGGLSIVLREHDGGGTDLFDETRPGLDHLSFSVESMTDLDVLEERLAKAGAAFTPTQELPFGWILAFRDADNIALEAMLGREGHHHHHH”, “not failed”.
In the case of “MSLSIVENGRKLESTIDFSRFAQEIKQNGWKIMLAGLIVAVVAYPLISMITPKYVSTATVLLKAQQDNVSPLPQVDGYDSTRSGYYETQYALMQSRIVLEQAVRDIKLDQNPAFNGDTDKNADHRGDEQQRVDHALDSIVKNLTITGVRTTHLATISYESASPELAADIANGAAQAFIDYTARQKHLKTLKAKALNQKQMEEVWQQVVEQQAAIDQFLKKEGLLTFRGVDGFETEQLGIVTTKLADATQRRIRAETNDNSVRSNAGTSLENIISLPDISNHAQIQDLRIALIQARRSLYDLRKRYGVKHTKILEAEAQVQAIEEQTHTVLLELKAGLNKQYQAALRDEKYYQQLLEQQKVDFQTLASKRDEYNNLTTALNKTKELYKALYQRTKEQTLAGNYLEPDAILYDPAVPADHPSKPNKAMLLVMVVMLTLIFSVVYFIVRAALDNSINSISQMKKRLNVAPVGEIRTFASGVERSKVVRLITKAPLDVDIVHSMRTHILLSHPSCQAIAISSAEHGEGRSLLAHLLARSFSADQKTLLIDLDFFNDGGLTQDLANPSAIGVAELLQGQSPLDAALVIISENLSFLPRGNAVMSSLLMLSSEHVVTLMAELRTRYQRIIVDVAAVNQTQDSQLISRVIDGVVFVLKAGEWRAGDVLNAIDKVKQHRAVLIGAVMNRVADKNLETKEGIRSLNHRMNALINSTGHL” it was “failed”.
In the case of “MSLSRPLLFALTALSLTAASLAHAADKKAADKPAPSAVSKADKALHDKFLTLDTHLDTPAHFGRPGWDIADHHEVEHDFSQVDLPRMNQGGLDGGFFVVYIGQGELTEKGYTYARDYALHRTIEIREMLAANPDTFEMALTSDDARRIAKAGKKFAFVSMENSWPVGEDLSLVETFYKEGLRMAGPVHFRNNQLADSSTDPKGKIWNGYSPLGLRWLAEANRLGIVIDVSHASDDVVDQSVALSKAPIIASHSGPKAVYDHPRNLDDARLKKIADAGGAICINSIYLTDTTPSPERKAALEALGRAPDMKTATPEAVKAYADKRAAIDKAHPAARGDFDLYMKSMLHVLKVAGPKGVCVGADWDGGGGMDGFEDITDLPKITARLKAEGYSDADIEAIWSGNVLRIVDAAQAYAKSVTKEGHHHHHH” it was “not failed”; in that of “MSLSSEVVLMKPYEKLVERFNEMAAEFLSYFPTVKSVGNLESELDKRRFVILFRAMLRLRNEVKGYNEFDAEDLTIEEQRFADYQSKYLDMSNEFAITSEKEDAESILQDIDFELELVHRDIINVMYILALLQDLKPESSSYPKDRKAVLDTMDSNPELRSKIALIDNFIKLHIDGRQSNDLPADMESDLDKYIATQKAIAIEQVATEEGIDSTLLHEYISEYEYLGKPKNEGHHHHHH”, “not failed”; in that of “MSLSVLDAPASQPCCPTGVTPEPSSRGPSARRVALLLAGALVAWIVAYAAAHPLSRWLTFGLLGLAEGSHLGESLAFFLYDVPKVLLLLTLIVFLVGIVRSFFTAERTRAILVGKRESVGNVVAALLGVVTPFCSCSAIPLFLGFVEVGVPLGVTFSFLVSAPMVNEVALVLLLGLFGWKVAALYLVTGLTIAILAGFVLGRMKLERHVEPWVYESMKGEARFEKEHLGFAGRVERGLQAVREVVGKVWPWVVAGIAVGAGIHGYVPEGLLASFMGKSAWWSVPAAVALGVPMYSNAAGIIPVVEALLGKGAALGTVLAFMMAVIGLSLPEIVILRKVLRPPLILAFVGVVASGILLVGWLFNAVL”, “failed”.
Regarding “MSLSVTIVMIEDDLGHARLIEKNIRRAGVNNEIIAFTDGTSALNYLFGDDKSGRVSAGRAQLVLLDLNLPDMTGIDILKLVKENPHTRRSPVVILTTTDDQREIQRCYDLGANVYITKPVNYENFANAIRQLGLFFSVMQVPETEGHHHHHH”, the protein production entry is “not failed”.
As to “MSLTAIHRPTWVSVDLDAAAHNLQEIREWTKAKKVYAVLKADGYGLGAIPLAKAFQETASADALIVSNLDEALELRQADLTLPIWVLGAWDYSDLKLFIDHDIVITIPSLAWLQNLPDFEGTLKVSLAIDTGMTRIGFDKADEISAAKKIIDKNPQLDLFSVYTHFATADEAGEKSKAYFEEQLRRWQELTINQGFDPSLFSMANSATCIWHHDDPRISFAAIRPGQLISGVNVSNGELKMPPNLHLERIFSVCSEIADVRFVKKDQSLSYGASERMPEDGYVATLPFGYNDGWLRRMQKSSVIINGKRMPIIGRITMDQTMVKLDRKYPIGTRVTLIGKDGGEQITVEEVANYSHTIVDEIQTTLAPRIKRIYTGDLAEVIGANYGEGHHHHHH”, the protein production result is “not failed”.
In the case of “MSLTGTDFHVGIVGLGSMGMGAARSCLRAGLSTWGADLNPQACANLLAEGACGAAASAREFAGVVDALVILVVNAAQVRQVLFGEDGVAHLMKPGSAVMVSSTISSADAQEIAAALTALNLNMLDAPVSGGAVKAAQGEMTVMASGSEAAFTRLKPVLDAVASNVYRISDTPGAGSTVKIIHQLLAGVHIAAAAEAMALAARAGIPLDVMYDVVTHAAGNSWMFENRMQHVVDGDYTPRSAVDIFVKDLGLVADTAKALRFPLPLASTALNMFTSASNAGYGKEDDSAVIKIFSGEGHHHHHH” it was “not failed”.
Regarding “MSLTKYHDLKNKVIVIAGGIKNLGALTAKTFALESVNLVLHYHQAKDSDTANKLKDELEDQGAKVALYQSDLSNEEEVAKLFDFAEKEFGKVDIAINTVGKVLKKPIVETSEAEFDAMDTINNKVAYFFIKQAAKHMNPNGHIITIATSLLAAYTGFYSTYAGNKAPVEHYTRAASKELMKQQISVNAIAPGPMDTSFFYGQETKESTAFHKSQAMGNQLTKIEDIAPIIKFLTTDGWWINGQTIFANGGYTTREGHHHHHH”, the protein production entry is on record as “not failed”.
With “MSLTSSAELAEVDTLARSLLLYRSRLSEYAHANPGFSGSPADSALGLPAWFRKPVRLQGYIAAGTSYAFIASPPAGLAAAVDAGTESDLVGVRRNGQLVTRRLGAIAIALPAPIPEGAVVAVKEGHHHHHH” the entry was “not failed”; with “MSLTSTATDSPLKYYDIGLNLTDPMFHGIYNGKQYHPADYVKLLERAAQRHVKNALVTGSSIAESQSAIELVSSVKDLSPLKLYHTIGVHPCCVNEFADASQGDKASASIDNPSMDEAYNESLYAKVISNPSFAQGKLKELYDLMNQQAKPHDTSFRSIGEIGLDYDRFHYSSKEMQKVFFEEQLKISCLNDKLSSYPLFLHMRSACDDFVQILERFVVGFTDEKDTFQLQKLGASSSSGFYKFHPDRKLVVHSFTGSAIDLQKLLNLSPNIFIGVNGCSLRTEENLAVVKQIPTERLLLETDAPWCEIKRTHASFQYLAKYQEVRDFEYPAFKSVKKNKLADKLNAEELYMVKGRNEPCNMEQVAIVVSEVKDVDLATLIDTTWKTTCKIFGEGHHHHHH”, “not failed”; with “MSLTTSKTRKSGVAMTEKLELDPARTAIVLIEYQNEFTSDGGVLHGAVADVMQHTGMLANTVAVVDAARQAGVPIMHAPITFAEGYGELTRHPYGILKGVVDGKAFVKGTWGAAIVDELAPVNGDIVIEGKRGLDTFASTNLDFILRSKGVDTIVLGGFLTNCCVESTMRTGYERGFRVITLTDCVAATSQEEHNNAISYDFPMFSVPMTSADVIAALEGHHHHHH”, “not failed”.
In the case of “MSLVENLSLEPQPKRRKIDPEVKESPSRNCSHWFVRNKVCASCNTIVDNYQGRSFDYLYTGIQMSNEALGFTKRLISQTSWLEDKKLHLVLDLDHTLVHTIKVSQLSESEKYITEEVESRKDLRRFNTGFPEESLIKLRSFVHQFLKECNEMFSLYVYTKGGYDYAQLVLEMIDPDKIYFGNRVITRRESPGFKTLDLVLADERGIVVVDDKSSVWPHDKKNLLQIARYKYFGDQSCLLSECKKKIDESDEKGPLNTALRFLMDVHEEFFCDWSRKDLDSVDVRPLLKEISLRWKRKADGVV” it was “failed”.
With “MSLVKIVRIETFPLFHRLEKPYGDANGFKRYRTCYLIRIITESGIDGWGECVDWLPALHVGFTKRIIPFLLGKQAGSRLSLVRTIQKWHQRAASAVSMALTEIAAKAADCSVCELWGGRYREEIPVYASFQSYSDSPQWISRSVSNVEAQLKKGFEQIKVKIGGTSFKEDVRHINALQHTAGSSITMILDANQSYDAAAAFKWERYFSEWTNIGWLEEPLPFDQPQDYAMLRSRLSVPVAGGENMKGPAQYVPLLSQRCLDIIQPDVMHVNGIDEFRDCLQLARYFGVRASAHAYDGSLSRLYALFAQACLPPWSKMKNDHIEPIEWDVMENPFTDLVSLQPSKGMVHIPKGKGIGTEINMEIVNRYKWDGSAYEGHHHHHH”, the protein production result is “not failed”.
In the case of “MSLVNSLTHYEILRIPSDATQDEIKKAYRNRLLNTHPDKLSKSIHDTVSNVTINKIQDAYKILSNIKTRREYDRLILENYK” it was “not failed”.
Turning to “MSLWQPLVLVLLVLGCCFAAPRQRQSTLVLFPGDLRTNLTDRQLAEEYLYRYGYTRVAEMRGESKSLGPALLLLQKQLSLPETGELDSATLKAMRTPRCGVPDLGRFQTFEGDLKWHHHNITYWIQNYSEDLPRAVIDDAFARAFALWSAVTPLTFTRVYSRDADIVIQFGVAEHGDGYPFDGKDGLLAHAFPPGPGIQGDAHFDDDELWSLGKGVVVPTRFGNADGAACHFPFIFEGRSYSACTTDGRSDGLPWCSTTANYDTDDRFGFCPSERLYTRDGNADGKPCQFPFIFQGQSYSACTTDGRSDGYRWCATTANYDRDKLFGFCPTRADSTVMGGNSAGELCVFPFTFLGKEYSTCTSEGRGDGRLWCATTSNFDSDKKWGFCPDQGYSLFLVAAHEFGHALGLDHSSVPEALMYPMYRFTEGPPLHKDDVNGIRHLYGPRPEPEPRPPTTTTPQPTAPPTVCPTGPPTVHPSERPTAGPTGPPSAGPTGPPTAGPSTATTVPLSPVDDACNVNIFDAIAEIGNQLYLFKDGKYWRFSEGRGSRPQGPFLIADKWPALPRKLDSVFEEPLSKKLFFFSGRQVWVYTGASVLGPRRLDKLGLGADVAQVTGALRSGRGKMLLFSGRRLWRFDVKAQMVDPRSASEVDRMFPGVPLDTHDVFQYREKAYFCQDRFYWRVSSRSELNQVDQVGYVTYDILQCPED”, the protein production result is “not failed”.
In the case of “MSMGKKHLNINSQNHQSTKDEDNNCKNSLFFGLFDDPESKRLRSGSMKRQYSDMGDSYHRVYDEQNDDVEYDGDGDGDEDEGSRMDMRVLMVLEYMRELYVGQLQLLKKMFPGAAKDEFLGFFNKIGDAVSQIKQDSRPPTKSMTMRRSLSAGSPRFTSKGVNLGPSDLRHERFKVTMVNAGGAAGSAGGGKGGSAAGQGQTKK” it was “failed”.

For the origin of these results see a protein production outcome set (Wang et al. 2014).
